From PMC6382882

What was measured:
[1] = target: mKRb, recombinant fragment spanning the ketoreductase domain from module 7 of MLSB (Mycobacterium ulcerans); test: ITC; ACP species (1 mM) in the syringe injected into mKRb (50 uM) with 5 mM NADP+ in the cell; 25 mM HEPES, 50 mM NaCl, 0.01% NaN3, pH 7.5, 30 °C; single binding site model; mean of three technical replicates
[2] = target: mKRb, recombinant fragment spanning the ketoreductase domain from module 7 of MLSB (Mycobacterium ulcerans); test: ITC; ACP species (1 mM) in the syringe injected into mKRb (50 uM) with 5 mM NADPH in the cell; 25 mM HEPES, 50 mM NaCl, 0.01% NaN3, pH 7.5, 30 °C; single binding site model; mean of three technical replicates

Substance | Kd [1] [µM] | Kd [2] [µM] | stoichiometry N [2]
apo mACPb, short B1-type ACP domain from module 7 of MLSB (domain or fragment) | 2.6 | 2.2 | 1
apo mH0ACPa, N-terminally extended A1-type ACP domain from module 5 of MLSA1 (from UniProt Q6MZA4 11087-11185) (domain or fragment) |  | 2.2 | 
apo mH0ACPb, N-terminally extended B1-type ACP domain from module 7 of MLSB (domain or fragment) | 1.38 | 1.43 | 
holo mACPb, short B1-type ACP domain from module 7 of MLSB with Ppant (domain or fragment) | 0.61 | 0.75 | 
holo mH0ACPa, N-terminally extended A1-type ACP domain from module 5 of MLSA1 with Ppant (from UniProt Q6MZA4 11087-11185) (domain or fragment) |  | 0.63 | 
holo mH0ACPb, N-terminally extended B1-type ACP domain from module 7 of MLSB with Ppant (domain or fragment) | 0.71 | 0.69 | 
